From the supplement of paper PMC10724198
± gives the standard deviation of the averaged measurements.

How the values were obtained:
Saccharomyces cerevisiae [1] = experiment: protein stability index of tFT-peptide fusion (C-terminal peptide) (PSI (0-1 scale)); higher = more stable (slower turnover)
Method: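 MPS profiling in S. cerevisiae of the tFT-X12 degron library: putative degron peptides plus stable controls, 12 aa, fused to the C-terminus of a sfGFP-mCherry timer. Cells are FACS-sorted into 8 mCherry/sfGFP bins and deep-sequenced. PSI runs from 0 (unstable) to 1 (stable). Backgrounds are wild type, das1Δ and doa10Δ at 30 °C, and wild type, das1Δ, cdc34-1 and cdc53-1 at 37 °C; 2-3 technical replicates each.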

Saccharomyces cerevisiae [2] = experiment: as above; conditions: genetic background: wild type; temperature: 30 C
[3] = genetic background: cdc34-1, temperature: 37 C
[4] = genetic background: cdc53-1, temperature: 37 C
[5] = genetic background: das1 deletion, temperature: 30 C
[6] = genetic background: das1 deletion, temperature: 37 C
[7] = genetic background: doa10 deletion, temperature: 30 C
[8] = genetic background: wild type, temperature: 30 C
[9] = genetic background: wild type, temperature: 37 C
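Further: PSI is a weighted mean of sequencing reads over stability bins, variants kept only with over 10 reads, mCherry proximal and sfGFP distal, peptide attached via GGGS linker.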

Sequence | protein stability index (Saccharomyces cerevisiae [1]; [3]) | protein stability index (Saccharomyces cerevisiae [1]; [4]) | protein stability index (Saccharomyces cerevisiae [1]; [5]) | protein stability index (Saccharomyces cerevisiae [1]; [6]) | protein stability index (Saccharomyces cerevisiae [1]; [7]) | protein stability index (Saccharomyces cerevisiae [1]; [8]) | protein stability index (Saccharomyces cerevisiae [1]; [9]) | protein stability index (Saccharomyces cerevisiae [2])
FHRSVVRLWLRN | 0.49 ± 0.06 | 0.619 ± 0.024 | 0.604 ± 0.02 | 0.679 ± 0.0092 | 0.114 ± 0.0044 | 0.104 ± 0.031 | 0.181 ± 0.066 | 0.301 ± 0.041
FLAPPFLPPPPA | 0.693 ± 0.021 | 0.7351 ± 0.00039 | 0.672 ± 0.014 | 0.758 ± 0.016 | 0.683 ± 0.02 | 0.705 ± 0.011 | 0.737 ± 0.015 | 0.748 ± 0.016
FLCLLASFVVCF | 0.3271 ± 0.00067 | 0.312 ± 0.008 | 0.281 ± 0.039 | 0.384 ± 0.029 | 0.249 ± 0.0083 | 0.285 ± 0.028 | 0.336 ± 0.015 | 0.363 ± 0.008
FLFFWRASLFFW | 0.116 ± 0.0025 | 0.164 ± 0.0095 | 0.183 ± 0.029 | 0.278 ± 0.027 | 0.178 ± 0.018 | 0.15 ± 0.029 | 0.191 ± 0.022 | 0.229 ± 0.023
FLIYMFRHCFFH | 0.537 ± 0.071 | 0.626 ± 0.034 | 0.593 ± 0.015 | 0.676 ± 0.039 | 0.268 ± 0.013 | 0.278 ± 0.028 | 0.393 ± 0.018 | 0.345 ± 0.029
FLMCVFFLCFSN | 0.304 ± 0.031 | 0.41 ± 0.051 | 0.308 ± 0.024 | 0.472 ± 0.015 | 0.208 ± 0.0021 | 0.22 ± 0.019 | 0.325 ± 0.029 | 0.34 ± 0.028
FLSLPLFILFLS | 0.229 ± 0.036 | 0.232 ± 0.041 | 0.283 ± 0.029 | 0.39 ± 0.02 | 0.1217 ± 0.00068 | 0.0821 ± 0.013 | 0.119 ± 0.0033 | 0.132 ± 0.014
FLSLSFLLLHFP | 0.398 ± 0.018 | 0.39044 ± 0.00026 | 0.385 ± 0.04 | 0.535 ± 0.0059 | 0.543 ± 0.017 | 0.434 ± 0.041 | 0.479 ± 0.005 | 0.471 ± 0.064
FLVLFYCTFWVR | 0.162 ± 0.0078 | 0.242 ± 0.032 | 0.222 ± 0.019 | 0.3245 ± 0.0025 | 0.197 ± 0.006 | 0.211 ± 0.042 | 0.349 ± 0.071 | 0.329 ± 0.089
FLVPLSPMLLSA | 0.446 ± 0.011 | 0.451 ± 0.005 | 0.375 ± 0.031 | 0.4942 ± 0.0011 | 0.323 ± 0.012 | 0.347 ± 0.019 | 0.463 ± 0.014 | 0.4 ± 0.019
FMCCFWFFWLGF | 0.522 ± 0.041 | 0.518 ± 0.0095 | 0.421 ± 0.024 | 0.53 ± 0.0084 | 0.451 ± 0.006 | 0.438 ± 0.0098 | 0.501 ± 0.0061 | 0.459 ± 0.031
FNLFWPVSAFVV | 0.506 ± 0.061 | 0.563 ± 0.011 | 0.436 ± 0.03 | 0.5749 ± 0.0047 | 0.211 ± 0.0037 | 0.254 ± 0.0078 | 0.398 ± 0.044 | 0.374 ± 0.019
FNMLFVVRLLYM | 0.37 ± 0.033 | 0.418 ± 0.0046 | 0.334 ± 0.053 | 0.473 ± 0.026 | 0.259 ± 0.027 | 0.257 ± 0.045 | 0.396 ± 0.0043 | 0.365 ± 0.0057
FPFFLLAAPFLA | 0.564 ± 0.007 | 0.621 ± 0.0096 | 0.546 ± 0.019 | 0.6439 ± 0.0013 | 0.16 ± 0.0077 | 0.19 ± 0.026 | 0.295 ± 0.026 | 0.237 ± 0.036
FPFFVFRVWFGA | 0.4642 ± 0.0036 | 0.535 ± 0.01 | 0.414 ± 0.026 | 0.565 ± 0.006 | 0.32953 ± 0.00015 | 0.346 ± 0.033 | 0.502 ± 0.022 | 0.464 ± 0.014
FPPFALLLIIND | 0.475 ± 0.015 | 0.54 ± 0.039 | 0.396 ± 0.023 | 0.581 ± 0.058 | 0.415 ± 0.0098 | 0.421 ± 0.029 | 0.525 ± 0.0097 | 0.406 ± 0.089
FPRQFVYLPLLF | 0.647 ± 0.064 | 0.709 ± 0.025 | 0.555 ± 0.011 | 0.696 ± 0.017 | 0.372 ± 0.018 | 0.402 ± 0.032 | 0.595 ± 0.02 | 0.487 ± 0.011
FQPLELFFVCVF | 0.0866 ± 0.04 | 0.154 ± 0.025 | 0.199 ± 0.02 | 0.235 ± 0.014 | 0.163 ± 0.014 | 0.181 ± 0.023 | 0.212 ± 0.016 | 0.305 ± 0.014
FRCFVLPYFGRF | 0.608 ± 0.032 | 0.699 ± 0.021 | 0.647 ± 0.0081 | 0.7 ± 0.0079 | 0.372 ± 0.037 | 0.37 ± 0.015 | 0.5489 ± 0.0039 | 0.435 ± 0.036
FRDRFLRWNLVS | 0.481 ± 0.073 | 0.676 ± 0.013 | 0.6489 ± 0.0058 | 0.757 ± 0.025 | 0.129 ± 0.026 | 0.14 ± 0.025 | 0.21 ± 0.02 | 0.223 ± 0.022
FRVFYSFLLCLS | 0.194 ± 0.0057 | 0.189 ± 0.01 | 0.228 ± 0.015 | 0.307 ± 0.0087 | 0.178 ± 0.0048 | 0.162 ± 0.0088 | 0.219 ± 0.0085 | 0.22 ± 0.0028
FRVILISACESV | 0.565 ± 0.016 | 0.582 ± 0.011 | 0.403 ± 0.032 | 0.5562 ± 0.0034 | 0.384 ± 0.032 | 0.397 ± 0.019 | 0.5385 ± 0.004 | 0.464 ± 0.0071
FSFPAFTFIVSI | 0.352 ± 0.03 | 0.346 ± 0.006 | 0.336 ± 0.024 | 0.475 ± 0.024 | 0.502 ± 0.031 | 0.329 ± 0.0099 | 0.447 ± 0.035 | 0.4357 ± 0.0022
FSICGFYSLCFG | 0.569 ± 0.028 | 0.617 ± 0.019 | 0.503 ± 0.021 | 0.628 ± 0.013 | 0.4968 ± 0.0046 | 0.512 ± 0.0077 | 0.599 ± 0.023 | 0.492 ± 0.045
FSLLFVRFCFFL | 0.2674 ± 0.00097 | 0.323 ± 0.0039 | 0.256 ± 0.037 | 0.4195 ± 0.0026 | 0.227 ± 0.0074 | 0.248 ± 0.039 | 0.3372 ± 0.0022 | 0.305 ± 0.037
FSLLLSLSLFHC | 0.547 ± 0.053 | 0.555 ± 0.018 | 0.534 ± 0.0069 | 0.549 ± 0.006 | 0.183 ± 0.0059 | 0.2 ± 0.025 | 0.356 ± 0.0068 | 0.31 ± 0.015
FSVLVVYTRLFQ | 0.427 ± 0.064 | 0.452 ± 0.033 | 0.332 ± 0.042 | 0.558 ± 0.013 | 0.306 ± 0.011 | 0.321 ± 0.033 | 0.508 ± 0.012 | 0.414 ± 0.091
FTEFWFFKQMSV | 0.579 ± 0.019 | 0.761 ± 0.015 | 0.618 ± 0.031 | 0.7757 ± 0.0069 | 0.11 ± 0.01 | 0.126 ± 0.022 | 0.137 ± 0.04 | 0.171 ± 0.016
FTRWLVYCTPLC | 0.554 ± 0.033 | 0.569 ± 0.0098 | 0.46 ± 0.011 | 0.586 ± 0.0022 | 0.437 ± 0.029 | 0.441 ± 0.012 | 0.567 ± 0.013 | 0.516 ± 0.024
FVFFRFSLLFFF | 0.332 ± 0.022 | 0.344 ± 0.04 | 0.331 ± 0.029 | 0.449 ± 0.0046 | 0.269 ± 0.0034 | 0.225 ± 0.027 | 0.356 ± 0.014 | 0.337 ± 0.049
